Laboratory results: the DeepSol protein solubility set

Experiment: soluble on expression in E. coli; label from the status in PepcDB or PDB records

Q: With “MPLEASELKPTAGPLEASELKPTAGPLEASELKPTAGPLEASELKPTAGPLEASELKPTAGPLEASELKPTAGPLEASELKPTAGMTDAFIFENKKAAFLTLGCKLNFAETSTIGKALAEQGVRPVREGEKADICVINTCSVTELADKKCRNAIRKLHKEHPGALMIVTGCYAQLKPEEIARIDGVDIVLGADEKLDLVSILSQRPIQGFAEQTILTTPTKDIRKFQPGCSADDRTRHFLKVQDGCDYHCSYCTIPKARGRSRNGSIESLVRQAEAVAAEGGKEIVLTGVNIGDFGRSTGETFLDLLRALDQVEGIERYRIGSIEPNLLSDELIDFCASAHRIAPHFHMPLQSGSDDVLKLMRRRYDTALFRERVEHIRRALPHAFIGIDVIVGTRGEKPEFFEDCYSFLQDKISFSRLHVFSYSERPGTQALQIPYKVDAREKQRRSRRLLDLSDLRLAEFYRSQEGTHRRVLWEDVCHEGLMQGFTENYIRVAAPYAADSVGKVEEIVLGKTDPSGEYVQTADTIFPLEHHHHHH” as the sequence, how does the “soluble on expression in E. coli” value read?
A: soluble

Q: With “MGSDKIHHHHHHAPPTFPEVKKIHAHRLSDELLISYPLDMAVSEDYIFILALADNAWLQVYDKTTGQLLGSFVTRGQGPGEATTANMCYYNAREKKISVYDESSMKLLTYRFDKDADNWGALIEERSFYDLGGTVRRVWELRNGRFLVDGQLGTKSDQQKRFQMLADAKVVADYNDFPIDTPKERSVWSSPAIAISPDCKKMAVGTLYGGILELFDLSQNIELRAIRKFYPPVVQYLSGTIQNTEETVWGFSALCVTDERIYSVFIGDKNPNLFNNLSVFDWDGRELIKYNTDCLVLRICASTQEPNKLYGIAFSETHEFYLVSFSLGS” as the sequence, how does the “soluble on expression in E. coli” value read?
A: not soluble

Q: With “MEGSHHHHHHSQAQSKAQVLQSVAGQTLTVRCQYPPTGSLYEKKGWCKEASALVCIRLVTSSKPRTMAWTSRFTIWDDPDAGFFTVTMTDLREEDSGHYWCRIYRPSDNSVSKSVRFYLVVS” as the sequence, how does the “soluble on expression in E. coli” value read?
A: soluble

Q: For “MGHHHHHHSHMSAFASSDRAEKSGIALEAQQKIYEKYDKNLAGEILQWVQNVTGQSFDTQGDADNLVKVFQDGSLLCTLANSLKPGSVKKVNTSAMAFKKMENISFFLKFAEEYVQKSELFQTVDLYEGQDPNAVLICLASLARKSEKNFGRSGLGPKEAQGDRREWTDEQLKAGHNVIGLQMGSNKGATASGLNMGNTRHM”, which “soluble on expression in E. coli” value is on record?
A: soluble

Q: With “MSDHDRDFDVVVVGGGHNGLVAAAYLARAGLRVRLLERLAQTGGAAVSIQAFDGVEVALSRYSYLVSLLPSRIVADLGAPVRLARRPFSSYTPAPATAGRSGLLIGPTGEPRAAHLAAIGAAPDAHGFAAFYRRCRLVTARLWPTLIEPLRTREQARRDIVEYGGHEAAAAWQAMVDEPIGHAIAGAVANDLLRGVIATDALIGTFARMHEPSLMQNICFLYHLVGGGTGVWHVPIGGMGSVTSALATAAARHGAEIVTGADVFALDPDGTVRYHSDGSDGAEHLVRGRFVLVGVTPAVLASLLGEPVAALAPGAQVKVNMVVRRLPRLRDDSVTPQQAFAGTFHVNETWSQLDAAYSQAASGRLPDPLPCEAYCHSLTDPSILSARLRDAGAQTLTVFGLHTPHSVFGDTEGLAERLTAAVLASLNSVLAEPIQDVLWTDAQSKPCIETTTTLDLQRTLGMTGGNIFHGALSWPFADNDDPLDTPARQWGVATDHERIMLCGSGARRGGAVSGIGGHNAAMAVLACLASRRKSPLEHHHHHH” as the sequence, how does the “soluble on expression in E. coli” value read?
A: not soluble

Q: With “MTEKTIEFEGIEPVIIFGPYDSYLKKVREAFPDIRINARGAKITIGGDEPDLTAIEKIFREIIFLADQHGEVLENDVNALVSLALSPVSHPSAALSGDKDVIVETKDYVVKAKTDGQRRMVAEAAGNDIVFAIGPAGTGKTYTAVAIAVAAWKAKKIKRIVLARPAVEAGESLGFLPGDLAQKIDPYLRPLYDALQDMLTAEKLKFLTERRVIEIVPLAYMRGRTLNNSFIILDEAQNASSKQMMMCLTRLGVNSKAIITGDVTQVDLPKEMESGLMNAQKILKGIKGISFVFLDKSDVVRHRLVKDIINAYEHHEEGLRKGAPKEAEL” as the sequence, how does the “soluble on expression in E. coli” value read?
A: not soluble

Q: Which “soluble on expression in E. coli” value does the source give for “MGSDKIHHHHHHMAKFIMVVGTSSNSGKTVLVSGICRMLSNKGYKVAPFKSQNMSLNSRVSVEDGEIAVAQYTQAMAARAEPSVHFNPILLKPKGNFVSQVIVHGNPYEDKDYNEYRSKKDDFLVKIKESIDYLDKNYDYVVIEGAGSCCEINLLNDDIANLKVAEIAGADAILVSDIDRGGVFASIYGTVQLLPENWKKLLKGFVINKFRGNIDVLKDGFEKIEELTNIPVIGTIPYDETLVLPEEDSQALDGKRVFGNLKSPIEVNVVKFSKIANFTDVDPFSSDCLMKYIDFNENITGDILILPGTRCSTVEMDLMKKYGMDKKILEFVENGGIVLGICGGYQALGKMLFDEDFSEGDVGTISGLGLFDMETTFGNKKAIKNSTGKISIFNQNFDVSGYELHEGYSVSNETPLISLSKGFGNCGDSYDGSFKMIGDSYIFGTYFHGILENFEFRNYLVNLARSKKNLSKIEDDTYAELFNENMDKLSKIIEENLDFSKIIG” here?
A: not soluble

Q: For “LADSSDVTEVENYMKANYDVPNNVYFGKAEGKNVIYVSLESLQSFIIDYKIDGKEVTPFLNKLAHDNETFYFDNFFHQTGQGKTSDAEFMMENSLYPLAQGSVFVNKAQNTLQSVPAILKSKNYTSATFHGNTQTFWNRNEMYKAEGIDKFFDSAYYDMNEENTKNYGMKDKPFFKESMPLLESLPQPFYTKFITLSNHFPFGMDEGDTDFPAGDFGDSVVDNYFQSAHYLDQSIEQFFNDLKKDGLYDKSIIVMYGDHYGISENHNKAMAKVLGKDEITDYDNAQLQRVPLFIHAAGVKGEKVHKYAGDVDVAPTILHLLGVDTKDYLMSGSDILSKEHREVIPFRNGDFISPKYTKISGKYYDTKTGKELDESEVDKSEDSLVKKELEMSDKIINGDLLRFYEPKGFKKVNPSDYDYTKHDEDSSETSKDNEDK”, which “soluble on expression in E. coli” value is on record?
A: soluble

Q: Which “soluble on expression in E. coli” value does the source give for “MKLWSGGIQRDQNADSTVAFVKRDIEAEIYLMKYEILSLIAYHLDLAQRRLITEAESKCIINSLISLLQDSPKIDPEQEDAHTAVENAVIERCGDMGRNVRLFLSRNEQVHANVLMFTIERCHSIISILLDSIKVLKGADLKGLLPGTTHFMPAMPVTAATYSNYIENSLALAIRSIDRSLADASVLPYGYGSGYGSPNSGKLKVMSEMLGIGPVLKNPMIASSLYQFTIMQISNSIAGLSITLSRIAMDLIEYYRDGYVSLSDEFTTGSSLMPNKRNPDYLELLQGMAAVSSSVAVMSAMATMNKTSGYHRDFQMLKDSYIDMLNYIEEALLRLPDLFKGLRFEITDPMMLPGSIFATGNAWEDFANTHDWKQSYANIGRKIREKQDLKRYMPEDYVDIVEMHYLEEIEKKYGEILKKWDYLIEKAEAYISE” here?
A: soluble

Q: Which “soluble on expression in E. coli” value does the source give for “MGSDKIHHHHHHMELHIRLEGRKGLADQLYQQLRDGIDSGHLAAGSQLPPTRLLAEQLGVSRKTVAEAYSRLTYDNLLSGVVGRGTFVTPRHPLRSNESATLPLAGAASLERWQQRATVLSQRQLQAPSRYDFVGGASSKAQFPFDQWRSCLNYALRRSQRHPERQFPAQGLPELREAIAHHIAYSRGVHCSAADLLVCNGAQQALDLIARVLVEPGCQVAMEDPGYPPARQLFLALGARLQSVPVDDEGLCVEQIADGTRLIYVTPSHQFPLGMPMSEPRRHALLARAAELGALIIEDDYDCEFRYHGPASDALQRLDRHGLVAYVGTFSKTLLPELRLGYAVLPPAVLQAACVAKHLSDWHSPTLLQWALARFLGEGHLNKHIRRCHEVYSARRERILARLGGDLAPWFSAIPASAGFHLSALATPGVDVELLANLARKVEVGLYSLAPFFSEAPVRPGLLMGFGAIELLDIDPALDRVRDTLQRLS” here?
A: not soluble

Q: With “MNSLLFVYGTLRKHEKNHHLLAQSACINEQARTKGSLFAAKEGPTVVFNDEDEGYIYGEVYEADELCIHKLDQFFQGYHKQTVFVETDVGIKIALIYFMNKDGCAGFTKISSGDWKEHQMISKSKNPIYYFAYGSCMDNARFQKAGVDHYFQDPVGRAVLKGYTTRFTLKREDGSRADMLEDGGTTEGVLYRIPYSALSYLYKREGVESLTYRPAFVDVEAGGRHYKDCLTFLVLQKEAEIAPPQHYQIEIERGAELYLSPEFTEKLKRHMNSLPKGLEHHHHHH” as the sequence, how does the “soluble on expression in E. coli” value read?
A: soluble

Q: Which “soluble on expression in E. coli” value does the source give for “MELVHEIAIDPNFQIPDKPTNAIQRCVQESMHKAYYNQLRRDLAKDPPELEYCFSFLMEVKTMILDDILTAQHTRLKAEINSMLDETALRGKLDQGQLDIKKVMKYIVDLCSRLCSPARDVKVAELRTRTDVIDIFEGTMDLLELMKNDLTNYQISQNRAAIEEYSSKHEYDMFQKFLIENPNGCYFARQWLKAAYDELFEKKLDAEGEETSVKKERKNEDTDTVLIDTTSRGYTKLIQVNEYDGFPETLKIDKIKIELLAEKFLQIVMCASSVFVTCNVAGKQISESADFKKTLKDHLIVITNNTDEERIKSDLEKIGEQCVKEAVDTSKKLNIEWNTESSTSIRNQINALISSDNPIRKLVHTRVSTFVEEMLRSPTSVPHRLLPGLSVIQSELCAFTSKFLRLCVHNRKTFYAMYSNLIQEFQGHTPSTHAIYRADSPSSMPGPSTSA” here?
A: not soluble

Q: With “MGSDKIHHHHHHMASIALNNLTYTYPQASTPILDRVNLTLPRQSFILLTGPSGTGKSTLLKLIAGLLPLTPDDGTITFDGQALTASTANQRAQHVAMMFQNPNQQFAMDTVENELIFALENLQVPRDQIPARLLSALDFVGIRNLQSRLLNHLSGGEKQKVALAIIVAMDSDVILLDEPFASVDPTARAVLLDRLVELRNQHGKTIILADHDLSGYEQLVDQVVQIKDQHLQLIDRTTWSELFSAFTEQPQRSWSAPQRVERPCFQLDHVTLQAGDRQLLVPTTRQLLAQHNTLITGPNGSGKSTLFEALVRLHPYTGEIRYEGTPIDKLKRKRYARHVALLFQDAETQFLNITVAEELAQSKRYAYGDYFTADRIQTALVQLNLSGRDEQVIYTLSEGQKKKLQILLMLIMQSPVLLMDEPLKGLDLHSINALVALLQTTQAATKQTLIIISHQLTGLMPLIDYQLHFENHHLDWVVRS” as the sequence, how does the “soluble on expression in E. coli” value read?
A: not soluble

Q: For “MAEVTGVRALTGAALDAALEDVARLRIAVFRAWPYLYDGDLDYERDYLQAYRNSDRAIVVGAFDGDRLIGASTGMPLADHADDFAAAFADSGLALDQVFYCAESVLLPDYRGHGVGHRFFDLREGHARALGFAKC”, which “soluble on expression in E. coli” value is on record?
A: not soluble

Q: For “MGSDKIHHHHHHMIELDNIKICPLAGIDDAIIIQSLNKASLTTSTSAIGPAVAEMVTRHGAVLLRGFAPEGTSAMAALFASLQWKPLQYTYRSTPRTSVSEGIYTATEFPASEEIMLHSENAFQADWPTRIGFHCAVPARAGGETPIGSLEKITARIDTGLFDEFRRRGVSYVRNYSDYVDLPWQVVFQSSDRGDVEEYCKNHGIGFEWRNSGLRTWQACQGTATHPERGNEVWFNQAHMFHYTALGPEMASNLLSIFGEEELPRNAYYGDGGVIPKDAVEHIREAFSAERASFGWEKDDILLLDNMRYCHGRNPFEGPRQVLVSMGRGYASVVDSSH”, which “soluble on expression in E. coli” value is on record?
A: not soluble

Q: For “MNAAVVRRTQEALGKVIRRPPLTEKLLSKPPFRYLHDIITEVIRMTGFMKGLYTDAEMKSDNVKDKDAKISFLQKAIDVVVMVSGEPLLAKPARIVAGHEPERTNELLQIIGKCCLNKLSSDDAVRRVLAGEK”, which “soluble on expression in E. coli” value is on record?
A: soluble

Q: With “MQTLQEILQQPELENKLLNQAKTVGFVTAMACCPNVLPPEEWLPFLWGGEEIAPFSDPIQLENYFEHIIALWNETRSQLLEGNWQWPTGYLLDEAEIVNQEVRDFCEGMLQGWQLARDDWEVLMPENSSDNTLLGGVLLSLSMLYDPETSIATLYEQGFTGLEQFAEIYHAIPVMLCGITQRGVTLAEAQ” as the sequence, how does the “soluble on expression in E. coli” value read?
A: not soluble

Q: With “MGSDKIHHHHHHVATYNERLFDGKSFRSKLHYARYLWVNSWIKRWELPSYSMLELGCYDGKTIDFLSNKPATYAGYDANWEGGLDIAKTKWSMHPDYSFHTCEKPADFSADDSMYEVSVCLETLEHIPAADLEAYIVQLSKKTKQYCLVSVPNEKGPVLFFKHIIKSITQEKAQTEAYTLKEFLYGSIGRLDKVARRDCGHKGFDYDALAVLLKKYFTILKTEAIPYPAIPHALGFNVGFILKKN” as the sequence, how does the “soluble on expression in E. coli” value read?
A: not soluble
